In article PMC8068644:

Experiment: immunoblot, full-length as % of total β1AR, CHO-Pro5
Settings: glycan lost

Row | Substance | other: N-terminal proteolytic cleavage, other: decrease in full-length β1AR (control: WT-β1AR) | other: N-terminal proteolytic cleavage, other: decrease in full-length β1AR (control: 31H32A/52A53A-β1AR)
1 | β1-adrenergic receptor (β1AR): S41A | 56.8% | –
2 | β1-adrenergic receptor (β1AR): S37A | 21.7% | –
3 | β1-adrenergic receptor (β1AR): S41A in 31H32A/52A53A backbone | – | 69.7%
